In publication PMC7611084 (Chemical communications (Cambridge, England), 2020):

Legend:
SpCID1 = biological target: T1, SpCID1 (Schizosaccharomyces pombe, UniProt O13833); assay: fluorescence titration; type: binding
T1 sequence (O13833 1-405): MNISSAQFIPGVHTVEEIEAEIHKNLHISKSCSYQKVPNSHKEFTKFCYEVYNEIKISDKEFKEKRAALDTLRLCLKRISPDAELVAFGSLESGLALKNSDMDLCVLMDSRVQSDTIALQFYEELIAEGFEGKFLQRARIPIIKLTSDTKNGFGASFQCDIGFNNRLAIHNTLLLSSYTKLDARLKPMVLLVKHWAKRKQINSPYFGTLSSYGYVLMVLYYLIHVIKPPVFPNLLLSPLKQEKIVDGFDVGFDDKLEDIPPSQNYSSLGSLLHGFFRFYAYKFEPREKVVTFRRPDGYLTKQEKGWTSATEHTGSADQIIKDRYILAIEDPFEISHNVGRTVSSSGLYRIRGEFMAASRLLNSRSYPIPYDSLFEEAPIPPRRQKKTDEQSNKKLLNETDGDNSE

[1] = biological target: T2, SpCID1 (caffeine-induced death suppressor 1, terminal uridylyl transferase) (Schizosaccharomyces pombe, UniProt O13833 1-405); assay: EMSA
T2 sequence: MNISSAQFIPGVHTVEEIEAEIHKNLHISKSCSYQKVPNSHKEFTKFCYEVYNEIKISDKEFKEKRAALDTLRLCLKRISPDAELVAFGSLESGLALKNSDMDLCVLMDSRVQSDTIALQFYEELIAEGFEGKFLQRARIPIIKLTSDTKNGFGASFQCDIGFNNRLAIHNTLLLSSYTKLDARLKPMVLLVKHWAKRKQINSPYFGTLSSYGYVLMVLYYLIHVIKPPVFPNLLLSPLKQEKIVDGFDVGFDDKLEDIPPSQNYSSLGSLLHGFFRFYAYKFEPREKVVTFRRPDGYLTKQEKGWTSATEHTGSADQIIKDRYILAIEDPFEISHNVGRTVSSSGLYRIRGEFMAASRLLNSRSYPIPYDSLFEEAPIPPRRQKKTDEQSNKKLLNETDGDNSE

[2] = biological target: T2, SpCID1 (caffeine-induced death …); assay: fluorescence titration

`O=c1[nH]c(=O)n([C@@H]2O[C@H](COP(=O)(O)OP(=O)(O)OP(=O)(O)O)[C@@H](O)[C@H]2O)cc1-c1cc2ccccc2o1` [compound 2, BFUTP] was tested, and the Kd (SpCID1) was 180 ± 40 nM.

For UUACCAUAGAAUCAUGUGCCAUACAUCAU (ssRNA, 3'-terminal U (position 29) is 5-benzofuran-uridine (BFU)) [3BFU], the Kd [1] was about 5400 nM.

In the case of UUACCAUAGAAUCAUGUGCCAUACAUCAU (ssRNA, 3'-terminal U (position 29) is 5-benzofuran-uridine (BFU)) [4BFU], the Kd [2] is reported as 520 ± 40 nM.
